Test results published in PMC9320373, “Isolation and Characterization of Cell Envelope Fragments Comprising Archaeal S-Layer Proteins” (Nanomaterials, 2022).

Biological target: the molecule itself
Test: negative-stain transmission electron microscopy with 2D image reconstruction; SlaA-enriched sacculi (lipids and SlaB removed by SDS washes) sonicated to fragments, on glow discharged grid, 2% uranyl acetate; Fourier domain processing; p3 hexagonal lattice

B1: S-layer large protein (SlaA) from Saccharolobus solfataricus P2 (natural protein, UniProt Q980C7 36-1231, looked up)
chain: AAIYTIPSVTSVSNTSNIVINLFFNATSNSTVGAQASAFNYGLAINYTLDAITFTVVLPSGTSYPLIKLNAKNFANYGYYDLAHNSIVLLLNTTASSTAKELAYSYEQSIGVTPSASYKIYNYTNKTVNVNQYMNELPLSMLIYMATNGKYNNLASLPVGTKLEFTYAGVTYIIAVSPTVKLVGELLNPLYTANSKMLPGTNYAVGRSNITVAVYDNLITTTTSPFNFTLTYSSLAPALIYWFVIANTTYTNNGASTPTASFQAPPFKQYFPSNSTILYSAAPTKSSILMFNGQMNVTAHENVTLTLQTGTNIYTSPNFNVTPPGNYTFSGKLGVGFNGFIYQNGSATLTATIFNGTINFFFSSTGQKAAFTFFLVPIVPINLGDNNGATVIYNGVSLNTGFPQVVVMFNITGNFTKSGSNYLLYGSVYEAELKPLGSTQLQKLAGATDSTQFVGNLISSASSPLVSYFNYGESTTTITGTSLSFTVLMPLKFIVERLGYIYLVTFHIWGPSATVTVTGVDYHGTQIALGSFRAYVALPSFYTLPKTPLVGLTCDNMYTLAQVSDAGSVLETSTANSNANNATVIGPYDLMSNAGLHVAIYNGSKLVKSGNLGLLPNATTAPITTTITLNGQTVALTYSSAPTAIYPVDFKFEPGFSYSVTTNVIYNTSIPTYVVTVYMPLKYILQTKIVMWYVSPDYAAYFYYSSTGQYQTSNVTLTFANVTPELVMPQVFPVGKLYMPFGINDPYYVFYSSISIGPQSGVIEAVENGFNVGNITSITVELNGMNESIVLSPLNVSKLLISSNLGEVSQCSPLFTTTLFNISALASLLGLPNAAALNGSYLYVTYHDIISGAYVTNRTLLVVGQFYVMPPTTPGSVEWILTAKYINATTGIPVEISYAVVQQPSAKVVDINAANASITQIQVTGVKIVSKYATVTVMYNPSNASTIVYMNGMFVASYGGNLISSLSETSTFGVYYGAVVNLYVATGTLSSPNGTMYVVLGSHKVAVGTANLYTYAGYHFGPYTALPLVSNVTFTVQDPVTHATLTGQTTLGAFNNTPIRLAPLGVSIPQTAQYKVFYYYSTPLVLSPTSQYIVLSVTSVISYPYPFYIETVSFLGYNVTTGTPVPGTPAFQTVYSPSLGPGVVLQVPVQSYQFISLSTPSEPHTVVMFAVPFAGGPAISLYPTFLVYANVTAISS
modifications: glycosylated (sites not given)
notes: SlaA, S-layer large protein of Saccharolobus solfataricus P2; UniProt KB entry Q980C7; Mr 131 kDa as printed; Native protein isolated as an assembled S-layer lattice (sacculi and fragments), not as soluble monomers; also called surface layer large protein; SSO sacculi; source: endogenous, Saccharolobus solfataricus P2; sacculi extracted with sodium lauroylsarcosine and sonication (SEG), washed …
B1: binds.
